# According to IntAct's records for PubMed 22265973:
# B1: Synaptotagmin-2 (Rattus norvegicus (Rat)), P29101 (parent)
# chain: MRNIFKRNQEPIVAPATTTATMPLAPAAPADNSTESTGTGESQEDMFAKLKDKFFNEINKIPLPPWALIAMAVVAGLLLLTCCFCICKKCCCKKKKNKKEKGKGMKNAMNMKDMKGGQDDDDAETGLTEGEGEGEEEKEPENLGKLQFSLDYDFQANQLTVGVLQAAELPALDMGGTSDPYVKVFLLPDKKKKYETKVHRKTLNPAFNETFTFKVPYQELGGKTLVMAIYDFDRFSKHDIIGEVKVPMNTVDLGQPIEEWRDLQGGEKEEPEKLGDICTSLRYVPTAGKLTVCILEAKNLKKMDVGGLSDPYVKIHLMQNGKRLKKKKTTVKKKTLNPYFNESFSFEIPFEQIQKVQVVVTVLDYDKLGKNEAIGKIFVGSNATGTELRHWSDMLANPRRPIAQWHSLKPEEEVDALLGKNK
# Variants of: B1
# Conditions: with bxb_clobo botB
row,Variant,effect of a mutation on the interaction
1,F54A,disrupting interaction

# Variants of: B1
# Conditions: with bxb_clobo botB
# Remark: another data set of the same source
row,Variant,effect of a mutation on the interaction
1,F54L,disrupting interaction
